Reference: PMC9943652

What was measured:
Test in all cases: EMSA
[1] = target: coreTFIIH (7-subunit: XPB, XPD, p62, p52, p44, p34, p8);XPG (human;human, UniProt P19447;P18074;P32780;Q92759;Q13888;Q13889;Q6ZYL4;P28715 …, |)
[2] = target: coreTFIIH (7-subunit: XPB, XPD, p62, p52, p44, p34, p8) (human, UniProt P19447;P18074;P32780;Q92759;Q13888;Q13889;Q6ZYL4 …)
XPG = target: T1, XPG (human, UniProt P28715 2-1186)
T1 sequence: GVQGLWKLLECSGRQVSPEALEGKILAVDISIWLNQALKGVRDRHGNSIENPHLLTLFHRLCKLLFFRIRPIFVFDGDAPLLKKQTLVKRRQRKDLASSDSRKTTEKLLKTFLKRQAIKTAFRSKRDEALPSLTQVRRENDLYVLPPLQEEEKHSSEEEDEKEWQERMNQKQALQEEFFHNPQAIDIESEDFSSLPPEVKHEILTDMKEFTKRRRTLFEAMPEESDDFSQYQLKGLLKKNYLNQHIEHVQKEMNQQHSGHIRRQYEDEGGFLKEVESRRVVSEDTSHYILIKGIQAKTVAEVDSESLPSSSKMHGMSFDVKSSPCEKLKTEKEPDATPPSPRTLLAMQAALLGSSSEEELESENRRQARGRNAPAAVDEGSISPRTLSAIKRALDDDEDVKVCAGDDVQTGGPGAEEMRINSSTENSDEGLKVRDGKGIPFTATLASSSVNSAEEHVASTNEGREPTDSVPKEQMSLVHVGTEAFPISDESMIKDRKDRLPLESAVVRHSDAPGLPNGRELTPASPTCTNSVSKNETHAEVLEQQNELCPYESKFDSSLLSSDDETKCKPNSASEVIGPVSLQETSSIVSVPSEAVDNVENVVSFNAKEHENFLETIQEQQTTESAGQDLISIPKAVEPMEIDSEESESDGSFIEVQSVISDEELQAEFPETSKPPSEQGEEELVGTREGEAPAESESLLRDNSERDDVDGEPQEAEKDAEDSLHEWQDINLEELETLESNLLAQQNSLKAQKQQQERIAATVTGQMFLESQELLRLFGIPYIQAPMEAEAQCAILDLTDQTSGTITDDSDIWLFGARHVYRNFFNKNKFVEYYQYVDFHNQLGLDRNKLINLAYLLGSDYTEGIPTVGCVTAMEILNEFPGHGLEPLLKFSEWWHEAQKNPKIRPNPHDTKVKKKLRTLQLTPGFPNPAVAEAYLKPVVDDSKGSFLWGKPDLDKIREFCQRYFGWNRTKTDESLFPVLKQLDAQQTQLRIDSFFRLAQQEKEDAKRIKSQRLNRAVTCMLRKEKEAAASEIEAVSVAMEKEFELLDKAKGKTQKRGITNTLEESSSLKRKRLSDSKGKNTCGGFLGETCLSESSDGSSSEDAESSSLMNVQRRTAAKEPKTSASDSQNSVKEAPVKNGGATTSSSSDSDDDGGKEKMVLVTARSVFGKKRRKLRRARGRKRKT

B1: 3'Cy5 40ss/24ds (mixed)
DNA 1: TTTTTTTTTTTTTTTTTTTTTTTTTTTTTTTTTTTTTTTTGCTGTTGCCCGTCTCACTGGTGAA
DNA 2: TTCACCAGTGAGACGGGCAACAGC
Kd [1]: ~19 nM | Kd [2]: ~82 nM | Kd (XPG): ~134 nM
